Measurements: patent US20100062512A1 (CRUCELL HOLLAND B V, published 2010)

Biological target: T1, Factor XI from DEAE treated human plasma (human, UniProt P03951 19-625)
T1 construct: mature; Plasma-derived, not purified when it was loaded on the Protein G column; also called FXI
Assay: Protein G column chromatography of 25 ml DEAE treated human plasma
Protocol: Therefore, 25 ml DEAE treated human plasma was subjected to a 1 ml Protein G column, to which IgG's selectively bound while more than 99% of the loaded Factor XI appeared in the flowthrough. Thus, a biological fluid containing Factor XI and depleted of IgG's was obtained.

T1 sequence (P03951 19-625 limits assumed): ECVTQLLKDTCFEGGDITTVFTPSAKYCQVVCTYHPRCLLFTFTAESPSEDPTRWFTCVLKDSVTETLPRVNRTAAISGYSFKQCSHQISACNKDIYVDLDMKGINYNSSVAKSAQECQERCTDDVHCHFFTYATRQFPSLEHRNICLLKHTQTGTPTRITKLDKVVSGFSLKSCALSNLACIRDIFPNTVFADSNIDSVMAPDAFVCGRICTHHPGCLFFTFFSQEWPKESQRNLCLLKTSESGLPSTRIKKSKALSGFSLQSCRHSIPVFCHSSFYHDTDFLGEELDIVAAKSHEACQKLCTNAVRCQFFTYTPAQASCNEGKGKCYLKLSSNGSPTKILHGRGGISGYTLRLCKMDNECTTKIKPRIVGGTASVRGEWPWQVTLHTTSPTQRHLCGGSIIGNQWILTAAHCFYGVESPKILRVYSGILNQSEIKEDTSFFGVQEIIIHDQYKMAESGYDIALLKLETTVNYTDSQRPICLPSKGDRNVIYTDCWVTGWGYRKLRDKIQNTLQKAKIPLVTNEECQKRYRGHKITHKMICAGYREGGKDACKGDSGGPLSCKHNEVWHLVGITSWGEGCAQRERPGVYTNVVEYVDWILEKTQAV

B1: Protein G (1 ml Protein G column) (other, UniProt P19909 303-497, looked up)
chain: TYKLILNGKTLKGETTTEAVDAATAEKVFKQYANDNGVDGEWTYDDATKTFTVTEKPEVIDASELTPAVTTYKLVINGKTLKGETTTEAVDAATAEKVFKQYANDNGVDGEWTYDDATKTFTVTEKPEVIDASELTPAVTTYKLVINGKTLKGETTTKAVDAETAEKAFKQYANDNGVDGVWTYDDATKTFTVTE
notes: Immobilised Protein G
B1: no binding (tested: more than 99% in flowthrough).
